Assay results reported in article PMC3807708.

Experiments:
[1] = target: extracellular domain of human interferon-γ receptor 1 (IFN-γ-Rx), mutant N70G (human) (UniProt P15260); assay: SPR; His-tagged receptor immobilised on Ni2+-coated HTG chip; IFN-γ-SC as analyte; PBST; 15 °C; preliminary data of temperature dependency
[2] = target: extracellular domain of human interferon-γ receptor 1 (IFN-γ-Rx), wild type (human) (UniProt P15260); assay: as above
[3] = target: extracellular domain of human interferon-γ receptor 1 (IFN-γ-Rx), mutant N96W (human) (UniProt P15260); assay: as above
[4] = target: extracellular domain of human interferon-γ receptor 1 (IFN-γ-Rx), mutant H222R (human) (UniProt P15260); assay: as above
[5] = target: IFN-γ-Rx N70G + S95R + H222R (human) (UniProt P15260); assay: SPR; ProteOn XPR36; His-tagged receptor immobilised on Ni2+-activated HTG chip; IFN-γ-SC as analyte, 1.2 to 99 nM; PBST (PBS pH 7.4, 0.005% Tween20); 25°C; 1:1 Langmuir with drift model; doubly referenced
IFN-γ-Rx H222D (human) = IFN-γ-Rx H222D (human) (UniProt P15260); assay: as above
IFN-γ-Rx N70G (human) = IFN-γ-Rx N70G (human) (UniProt P15260); assay: as above
IFN-γ-Rx N96F (human) = IFN-γ-Rx N96F (human) (UniProt P15260); assay: as above
[6] = target: IFN-γ-Rx S95R + H222R (human) (UniProt P15260); assay: as above
IFN-γ-Rx S71E (human) = IFN-γ-Rx S71E (human) (UniProt P15260); assay: as above
[7] = target: IFN-γ-Rx N96W + H222R (human) (UniProt P15260); assay: as above
IFN-γ-Rx T166M (human) = IFN-γ-Rx T166M (human) (UniProt P15260); assay: as above
IFN-γ-Rx S95R (human) = IFN-γ-Rx S95R (human) (UniProt P15260); assay: as above
IFN-γ-Rx K115Y (human) = IFN-γ-Rx K115Y (human) (UniProt P15260); assay: as above
[8] = target: IFN-γ-Rx N70G + S95R (human) (UniProt P15260); assay: as above
IFN-γ-Rx N96W (human) = IFN-γ-Rx N96W (human) (UniProt P15260); assay: as above

Kd [1]: 14.7 nM
Kd [2]: 16.8 nM
Kd [3]: 5.55 nM
Kd [4]: 16.4 nM
Kd [5]: 37 nM
koff [5]: 0.0401 s⁻¹
kon [5]: 1.09e+06 M⁻¹ s⁻¹
fold change of Kd against WT (IFN-γ-Rx H222D (human)): 2.2 fold
Kd (IFN-γ-Rx N70G (human)): 23.6 nM
koff (IFN-γ-Rx N70G (human)): 0.0264 s⁻¹
kon (IFN-γ-Rx N70G (human)): 1.12e+06 M⁻¹ s⁻¹
Kd (IFN-γ-Rx N96F (human)): 28 nM
koff (IFN-γ-Rx N96F (human)): 0.0283 s⁻¹
kon (IFN-γ-Rx N96F (human)): 1.01e+06 M⁻¹ s⁻¹
Kd [6]: 56.3 nM
koff [6]: 0.059 s⁻¹
kon [6]: 1.05e+06 M⁻¹ s⁻¹
fold change of Kd against WT (IFN-γ-Rx S71E (human)): 2 fold
Kd [7]: 4.16 nM
koff [7]: 0.01 s⁻¹
kon [7]: 2.4e+06 M⁻¹ s⁻¹
Kd (IFN-γ-Rx T166M (human)): 68.5 nM
koff (IFN-γ-Rx T166M (human)): 0.0639 s⁻¹
kon (IFN-γ-Rx T166M (human)): 933000 M⁻¹ s⁻¹
Kd (IFN-γ-Rx S95R (human)): 69.8 nM
koff (IFN-γ-Rx S95R (human)): 0.0454 s⁻¹
kon (IFN-γ-Rx S95R (human)): 650000 M⁻¹ s⁻¹
Kd (IFN-γ-Rx K115Y (human)): 39.9 nM
koff (IFN-γ-Rx K115Y (human)): 0.0391 s⁻¹
kon (IFN-γ-Rx K115Y (human)): 979000 M⁻¹ s⁻¹
Kd [8]: 55.9 nM
koff [8]: 0.0494 s⁻¹
kon [8]: 889000 M⁻¹ s⁻¹
Kd (IFN-γ-Rx N96W (human)): 6.34 nM
koff (IFN-γ-Rx N96W (human)): 0.00909 s⁻¹
kon (IFN-γ-Rx N96W (human)): 1.43e+06 M⁻¹ s⁻¹
Substance: single-chain form of human interferon-γ (IFN-γ-SC) (ligand)
